No end group written: not given here.
B1: peptide 68 (18 mer of E1 of HCV strain H77) (peptide)
peptide: PRHHWTTQDCNCSIYPGH
B2: peptide 72 (18 mer of E1 of HCV strain H77) (peptide)
peptide: MMNWSPTAALVVAQLLRI
B3: peptide 77 (18 mer of E1 of HCV strain H77) (peptide)
peptide: GIKYFSMVGNWAKVLVVL
B4: peptide 67 (18 mer of E1 of HCV strain H77) (peptide)
peptide: GQLFTFSPRHHWTTQDCN
B5: peptide 79 (18 mer of E1 of HCV strain H77) (peptide)
peptide: LVVLLLFAGVDAETHVTG
B6: peptide 55 (18 mer of E1 of HCV strain H77) (peptide)
peptide: TNDCPNSSVVYEAADAIL
B7: peptide 78 (18 mer of E1 of HCV strain H77) (peptide)
peptide: VGNWAKVLVVLLLFAGVD
B8: peptide 62 (18 mer of E1 of HCV strain H77) (peptide)
peptide: LPTTQLRRHIDLLVGSAT
B9: peptide 61 (18 mer of E1 of HCV strain H77) (peptide)
peptide: VATRDGKLPTTQLRRHID
B10: peptide 65 (18 mer of E1 of HCV strain H77) (peptide)
peptide: ALYVGDLCGSVFLVGQLF
modifications: not fully specified
B11: peptide 58 (18 mer of E1 of HCV strain H77) (peptide)
peptide: GCVPCVREGNASRCWVAV
B12: peptide 69 (18 mer of E1 of HCV strain H77) (peptide)
peptide: QDCNCSIYPGHITGHRMA
modifications: not fully specified; cysteine pairing not given here
B13: peptide 76 (18 mer of E1 of HCV strain H77) (peptide)
peptide: AHWGVLAGIKYFSMVGNW
B14: peptide 52 (18 mer of E1 of HCV strain H77) (peptide)
peptide: SCLTVPASAYQVRNSSGL
B15: peptide 73 (18 mer of E1 of HCV strain H77) (peptide)
peptide: AALVVAQLLRIPQAIMDM
B16: peptide 54 (18 mer of E1 of HCV strain H77) (peptide)
peptide: SSGLYHVTNDCPNSSIVY
B17: peptide 57 (18 mer of E1 of HCV strain H77) (peptide)
peptide: DAILHTPGCVPCVREGNA
B18: peptide 75 (18 mer of E1 of HCV strain H77) (peptide)
peptide: IMDMIAGAHWGVLAGIKY
B19: peptide 64 (18 mer of E1 of HCV strain H77) (peptide)
peptide: GSATLCSALYVGDLCGSV
B20: peptide 56 (18 mer of E1 of HCV strain H77) (peptide)
peptide: SIVYEAADAILHTPGCVP
B21: peptide 66 (18 mer of E1 of HCV strain H77) (peptide)
peptide: CGSVFLVGQLFTFSPRHH
B22: peptide 74 (18 mer of E1 of HCV strain H77) (peptide)
peptide: LLRIPQAIMDMIAGAHWG
B23: peptide 63 (18 mer of E1 of HCV strain H77) (peptide)
peptide: RHIDLLVGSATLCSALYV
B24: peptide 53 (18 mer of E1 of HCV strain H77) (peptide)
peptide: SAYQVRNSSGLYHVTNDC

Biological target: envelope glycoproteins E1 and E2 of the H77 strain of HCV, on HIV-core pseudotype virions (hepatitis C virus strain H77, UniProt P27958)
Test: cell-based or functional assay

Row | Binder | Percent Inhibition of infection by the H77-E1E2 pseudotype (luciferase), peptide at about 25 µM [%] | Percent Inhibition of infection by the H77-E1E2 pseudotype (luciferase), peptide marked by asterisk: actual concentration 10 µM or less [%]
1 | B1 | 31.3 | –
2 | B2 | 33.4 | –
3 | B3 | 50.4 | –
4 | B4 | 43.2 | –
5 | B5 | 10.6 | –
6 | B6 | 1.12 | –
7 | B7 | – | -21.1
8 | B8 | -1.96 | –
9 | B9 | -30.8 | –
10 | B10 | – | 22.9
11 | B11 | -4.42 | –
12 | B12 | – | -73.1
13 | B13 | 15.3 | –
14 | B14 | -17.2 | –
15 | B15 | 11.5 | –
16 | B16 | 99.9 | –
17 | B17 | -49.4 | –
18 | B18 | 0.32 | –
19 | B19 | 0.55 | –
20 | B20 | 42.3 | –
21 | B21 | 79.5 | –
22 | B22 | 71.1 | –
23 | B23 | 49.1 | –
24 | B24 | 0.23 | –
